How the values were obtained:
[1] = target: T1, human Siglec-8 (full-length, on transfected CHO or 293 cells, or native on human eosinophils) (human, UniProt Q9NYZ4 17-499); test: flow cytometry on human eosinophils (CD16- CCR3+) from whole blood; anti-human AF647 secondary; MFI
Excerpt: To determine if increasing the valency of Siglec-8 antibodies could enhance agonist activity, the parental llama B12, D1 and E2 VHH sequences were used to generate tetravalent (Tet-B12 (cx8467; SEQ ID NO:50 linked to an Fe), Tet-D1 (cx8469; SEQ ID NO:56 linked to an Fe), and Tet-E2 (cx8463; SEQ ID NO:62 linked to an Fc)) and hexavalent (Hex-B12 (cx8466; SEQ ID NO:51 linked to an Fe), Hex-D1 (cx8523; SEQ ID NO:57 linked to an Fe), and Hex-E2 (cx8522; SEQ ID NO:165 linked to an Fc)), Siglec8-VHH-Fc antibodies linked to a reduced effector function xELL human Fc region via linker 2. The bivalent (Bi-B12 (cx8982), Bi-D1 (cx8983) and Bi-E2 (cx8984)), tetravalent, and hexavalent Siglec8-VHH-Fc antibodies were assessed by flow cytometry for binding to eosinophils (CD16⁻ CCR3⁺). Cells were isolated from whole blood by centrifugation, washed twice with 2% FBS PBS, and resuspended in 1×RBC lysis buffer for 10 minutes at room temperature (RT), washed once in 2% FBS PBS and treated with a second RBC lysis step and washed twice with 2% FBS. Cells were seeded at 200 k/well and resuspended in Human FC block for 10 minutes at RT. Cells were spun down and then resuspended in titrated test articles starting at 200 nM 1:4 and incubated for 30 minutes at 4° C. before being washed twice and resuspended in secondary mixture (2*; anti-CCR3 FITC, anti-human AF647, PI, anti-CD16 BV605) and incubated for 30 minutes at 4° C., washed twice, and bound antibodies were detected via flow cytometry (Novocyte).
As shown in FIG. 2A-2C, bivalent, tetravalent, and hexavalent Siglec8-VHH-Fc antibodies B12 (FIG. 2A), D1 (FIG. 2B) and E2 (FIG. 2C) bound to eosinophils. The calculated affinity was similar between the bivalent, tetravalent, and hexavalent hzSiglec8-VHH-Fc antibodies. The observed Bmax was reduced with increasing valency as anticipated, due the fact that the Fc portion of the antibody was detected in this assay and the ratio of Fc regions to anti-Siglec-8 binding domains is inverse to valency. No binding was observed on other granulocyte populations (CD16⁺ CCR3⁻).

[2] = target: T1, human Siglec-8 (full-length, on …); test: flow cytometry on 293 cells transiently transfected with full-length human Siglec-8; A647 anti-human Fc-gamma secondary; median fluorescence, nonlinear fit; table under the graph
Protocol: (§1) The binding of the lmG2 and humanized versions (further including Siglec8 hzG2v14), formatted as monomeric VHH-hIgG1 fusions proteins using a non-dimerizing human IgG1 Fe variant region lacking a hinge Fe NNT, was assessed by flow cytometry using 293 cells that had been transiently transfected with full-length human Siglec-8 and detected with an anti-human AF647 secondary antibody. Binding specificity was assessed using untransfected 293 cells as a control. For the binding assays, Siglec-8 293 cells or untransformed 293 cells were seeded in a 96 well U-bottom plate with 50 k cells/well in FACS buffer and incubated at 4° C. with a titration of anti-Siglec8-VHH-NNT for 30 minutes. After washing, the plates were incubated with an A647-conjugated anti-human Fcγ specific secondary antibody diluted 1:10,000 in FACS buffer for 20 minutes at 4° C. The plates were washed, and binding was determined by flow cytometry quantitating anti-human A647 median fluorescent intensity. The maximum specific binding (Bmax) and affinity (Kd) for was determined from the flow cytometry binding data using a nonlinear fit model.

[3] = target: T1, human Siglec-8 (full-length, on …); test: flow cytometry on 293 cells transiently transfected with full-length human Siglec-8; A647 anti-human Fc-gamma secondary; median fluorescence, nonlinear fit; table under the graph (Kd column without unit, concentration axis nM Ab)
Protocol: as §1

T1 sequence (Q9NYZ4 17-499): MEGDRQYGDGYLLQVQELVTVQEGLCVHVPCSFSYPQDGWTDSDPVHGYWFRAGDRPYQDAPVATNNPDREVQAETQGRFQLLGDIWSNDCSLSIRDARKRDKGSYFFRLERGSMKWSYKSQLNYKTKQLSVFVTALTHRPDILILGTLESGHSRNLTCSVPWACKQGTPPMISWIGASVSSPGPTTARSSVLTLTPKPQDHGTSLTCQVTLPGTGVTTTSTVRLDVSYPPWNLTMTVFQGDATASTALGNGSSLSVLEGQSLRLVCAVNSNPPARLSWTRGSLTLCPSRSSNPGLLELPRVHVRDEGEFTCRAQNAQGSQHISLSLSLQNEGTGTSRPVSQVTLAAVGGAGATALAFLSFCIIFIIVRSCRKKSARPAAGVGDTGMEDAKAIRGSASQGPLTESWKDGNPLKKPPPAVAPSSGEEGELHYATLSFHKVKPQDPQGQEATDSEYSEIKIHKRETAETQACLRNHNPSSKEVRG

binding result [1]	Bmax [2]	Kd [3] [pM]	Binder
binds	–	–	Hex-B12, hexavalent Siglec8-VHH-Fc (xELL) (Fc fusion, Homodimer through the Fc; also called cx8466) QVQVVESGGGLVQPGGSLRLSCAASGSTSLLNAMAWYRQAPGKERELVAAISSGGGTYYADSVKGRFTISTNNAKNTLYLQMNSLKPEDTAMYYCAPGPNYSDYEEINWGQGTQVTVKPGGSGGSQVQVVESGGGLVQPGGSLRLSCAASGSTSLLNAMAWYRQAPGKERELVAAISSGGGTYYADSVKGRFTISTNNAKNTLYLQMNSLKPEDTAMYYCAPGPNYSDYEEINWGQGTQVTVKPGGSGGSQVQVVESGGGLVQPGGSLRLSCAASGSTSLLNAMAWYRQAPGKERELVAAISSGGGTYYADSVKGRFTISTNNAKNTLYLQMNSLKPEDTAMYYCAPGPNYSDYEEINWGQGTQVTVKPGGGGDKTHTCPPCPAPGGPSVFLFPPKPKDTLMISRTPEVTCVVVDVSHEDPEVKFNWYVDGVEVHNAKTKPREEQYNSTYRVVSVLTVLHQDWLNGKEYKCKVSNKALPAPIEKTISKAKGQPREPQVYTLPPSRDELTKNQVSLTCLVKGFYPSDIAVEWESNGQPENNYKTTPPVLDSDGSFFLYSKLTVDKSRWQQGNVFSCSVMHEALHNHYTQKSLSLSPGK
binds	–	–	Tet-D1, tetravalent Siglec8-VHH-Fc (xELL) (Fc fusion, Homodimer through the Fc; also called cx8469) QVQLVESGGGLVQPGGSLRLSCAASGSIASIHGMGWYRQAPGKERELVAAIAGEGSTYYADSVKGRFTISRDFAKNTLYLQMNNLKAEDTAMYYCANNDERDDYWGQGTQVTVKPGGSGGSQVQLVESGGGLVQPGGSLRLSCAASGSIASIHGMGWYRQAPGKERELVAAIAGEGSTYYADSVKGRFTISRDFAKNTLYLQMNNLKAEDTAMYYCANNDERDDYWGQGTQVTVKPGGGGDKTHTCPPCPAPGGPSVFLFPPKPKDTLMISRTPEVTCVVVDVSHEDPEVKFNWYVDGVEVHNAKTKPREEQYNSTYRVVSVLTVLHQDWLNGKEYKCKVSNKALPAPIEKTISKAKGQPREPQVYTLPPSRDELTKNQVSLTCLVKGFYPSDIAVEWESNGQPENNYKTTPPVLDSDGSFFLYSKLTVDKSRWQQGNVFSCSVMHEALHNHYTQKSLSLSPGK
–	3.81e+06 Median (anti-human A647)	1570	Siglec8 hzG2v2.1, monomeric VHH-hIgG1 fusion (Fc NNT) (Fc fusion, Monomeric format; not shown: non-dimerizing human IgG1 Fc variant lacking a hinge (Fc NNT)) EVQLLESGGGEVQPGGSLRLSCAASGSISIFSMYVVAWYRQAPGKEREWVAFIQRGGTANYAESAKGRFTISRDNAKNTVYLQMSSLRAEDTAVYYCNYINSDNEIGGPWGQGTLVTVKP
–	1.4e+06 Median (anti-human A647)	175	Siglec8 hzG2v15, monomeric VHH-hIgG1 fusion (Fc NNT) (Fc fusion, Monomeric format; not shown: non-dimerizing human IgG1 Fc variant lacking a hinge (Fc NNT)) EVQLLESGGGEVQPGGSLRLSCAASGSISIFSYYVVAWYRQAPGKEREWVAFIQRGGTANYAESAKGRFTISRDNAKNTVYLQMSSLRAEDTAVYYCNYINSDNEIGGPWGQGTLVTVKP
–	1.49e+06 Median (anti-human A647)	100	Siglec8 hzG2v16, monomeric VHH-hIgG1 fusion (Fc NNT) (Fc fusion, Monomeric format; not shown: non-dimerizing human IgG1 Fc variant lacking a hinge (Fc NNT)) EVQLLESGGGEVQPGGSLRLSCAASGSISIFSLYVVAWYRQAPGKEREWVAFIQRGGTANYAESAKGRFTISRDNAKNTVYLQMSSLRAEDTAVYYCNYINSDNEIGGPWGQGTLVTVKP
–	1.47e+06 Median (anti-human A647)	140	Siglec8 hzG2v11, monomeric VHH-hIgG1 fusion (Fc NNT) (Fc fusion, Monomeric format; not shown: non-dimerizing human IgG1 Fc variant lacking a hinge (Fc NNT)) EVQLLESGGGEVQPGGSLRLSCAASGSISIFSMYVVAWYRQAPGKEREWVAFIQRGGTANYAESAKGRFTISRDNAKNTVYLQMSSLRAEDTAVYYCNYIQSDNEIGGPWGQGTLVTVKP
–	1.35e+06 Median (anti-human A647)	164	Siglec8 hzG2v14, monomeric VHH-hIgG1 fusion (Fc NNT) (Fc fusion, Monomeric format; not shown: non-dimerizing human IgG1 Fc variant lacking a hinge (Fc NNT)) EVQLLESGGGEVQPGGSLRLSCAASGSISIFSMYVVAWYRQAPGKEREWVAFIQRGGTANYAESAKGRFTISRDNAKNTVYLQMSSLRAEDTAVYYCNYINTDNEIGGPWGQGTLVTVKP
–	1.25e+06 Median (anti-human A647)	327	Siglec8 hzG2v12, monomeric VHH-hIgG1 fusion (Fc NNT) (Fc fusion, Monomeric format; not shown: non-dimerizing human IgG1 Fc variant lacking a hinge (Fc NNT)) EVQLLESGGGEVQPGGSLRLSCAASGSISIFSMYVVAWYRQAPGKEREWVAFIQRGGTANYAESAKGRFTISRDNAKNTVYLQMSSLRAEDTAVYYCNYISSDNEIGGPWGQGTLVTVKP
–	1.27e+06 Median (anti-human A647)	181	Siglec8 hzG2v24, monomeric VHH-hIgG1 fusion (Fc NNT) (Fc fusion, Monomeric format; not shown: non-dimerizing human IgG1 Fc variant lacking a hinge (Fc NNT)) QVTLKESGGGLVRTGGSLRLSCAASGSISIFSMYVVAWYRQAPGKQREWVAFIQRGGTANYAESAKGRFTISRDNAKNTVYLQMSSLRAEDTAVYYCNYINSDNEIGGPWGQGTLVTVKP
–	3.63e+06 Median (anti-human A647)	1700	Siglec8 hzG2v6.1, monomeric VHH-hIgG1 fusion (Fc NNT) (Fc fusion, Monomeric format; not shown: non-dimerizing human IgG1 Fc variant lacking a hinge (Fc NNT)) EVQLLESGGGEVQPGGSLRLSCAASGSISIFSMYVVAWYRQAPGKQREWVSFIQRGGTANYAESAKGRFTISRDNAKNTVYLQMSSLRAEDTAVYYCNYINSDNEIGGPWGQGTLVTVKP
–	1.06e+06 Median (anti-human A647)	138	Siglec8 hzG2v13, monomeric VHH-hIgG1 fusion (Fc NNT) (Fc fusion, Monomeric format; not shown: non-dimerizing human IgG1 Fc variant lacking a hinge (Fc NNT)) EVQLLESGGGEVQPGGSLRLSCAASGSISIFSMYVVAWYRQAPGKEREWVAFIQRGGTANYAESAKGRFTISRDNAKNTVYLQMSSLRAEDTAVYYCNYITSDNEIGGPWGQGTLVTVKP
binds	–	–	Tet-B12, tetravalent Siglec8-VHH-Fc (xELL) (Fc fusion, Homodimer through the Fc; also called cx8467) QVQVVESGGGLVQPGGSLRLSCAASGSTSLLNAMAWYRQAPGKERELVAAISSGGGTYYADSVKGRFTISTNNAKNTLYLQMNSLKPEDTAMYYCAPGPNYSDYEEINWGQGTQVTVKPGGSGGSQVQVVESGGGLVQPGGSLRLSCAASGSTSLLNAMAWYRQAPGKERELVAAISSGGGTYYADSVKGRFTISTNNAKNTLYLQMNSLKPEDTAMYYCAPGPNYSDYEEINWGQGTQVTVKPGGGGDKTHTCPPCPAPGGPSVFLFPPKPKDTLMISRTPEVTCVVVDVSHEDPEVKFNWYVDGVEVHNAKTKPREEQYNSTYRVVSVLTVLHQDWLNGKEYKCKVSNKALPAPIEKTISKAKGQPREPQVYTLPPSRDELTKNQVSLTCLVKGFYPSDIAVEWESNGQPENNYKTTPPVLDSDGSFFLYSKLTVDKSRWQQGNVFSCSVMHEALHNHYTQKSLSLSPGK
binds	–	–	Tet-E2, tetravalent Siglec8-VHH-Fc (xELL) (Fc fusion, Homodimer through the Fc; also called cx8463) QVQLVESGGGLVQPGGSLRLSCATSGIIFTSNVINWYRQAPGKQREFVAFITSITSGQSTMYADAVKGRFTVSRDNDKNIGYLQMTSLQPEDTARYVCNVGAYWGQGTQVTVKPGGSGGSQVQLVESGGGLVQPGGSLRLSCATSGIIFTSNVINWYRQAPGKQREFVAFITSITSGQSTMYADAVKGRFTVSRDNDKNIGYLQMTSLQPEDTARYVCNVGAYWGQGTQVTVKPGGGGDKTHTCPPCPAPGGPSVFLFPPKPKDTLMISRTPEVTCVVVDVSHEDPEVKFNWYVDGVEVHNAKTKPREEQYNSTYRVVSVLTVLHQDWLNGKEYKCKVSNKALPAPIEKTISKAKGQPREPQVYTLPPSRDELTKNQVSLTCLVKGFYPSDIAVEWESNGQPENNYKTTPPVLDSDGSFFLYSKLTVDKSRWQQGNVFSCSVMHEALHNHYTQKSLSLSPGK
binds	–	–	Hex-D1, hexavalent Siglec8-VHH-Fc (xELL) (Fc fusion, Homodimer through the Fc; also called cx8523) QVQLVESGGGLVQPGGSLRLSCAASGSIASIHGMGWYRQAPGKERELVAAIAGEGSTYYADSVKGRFTISRDFAKNTLYLQMNNLKAEDTAMYYCANNDERDDYWGQGTQVTVKPGGSGGSQVQLVESGGGLVQPGGSLRLSCAASGSIASIHGMGWYRQAPGKERELVAAIAGEGSTYYADSVKGRFTISRDFAKNTLYLQMNNLKAEDTAMYYCANNDERDDYWGQGTQVTVKPGGSGGSQVQLVESGGGLVQPGGSLRLSCAASGSIASIHGMGWYRQAPGKERELVAAIAGEGSTYYADSVKGRFTISRDFAKNTLYLQMNNLKAEDTAMYYCANNDERDDYWGQGTQVTVKPGGGGDKTHTCPPCPAPGGPSVFLFPPKPKDTLMISRTPEVTCVVVDVSHEDPEVKFNWYVDGVEVHNAKTKPREEQYNSTYRVVSVLTVLHQDWLNGKEYKCKVSNKALPAPIEKTISKAKGQPREPQVYTLPPSRDELTKNQVSLTCLVKGFYPSDIAVEWESNGQPENNYKTTPPVLDSDGSFFLYSKLTVDKSRWQQGNVFSCSVMHEALHNHYTQKSLSLSPGK

From US20250042997A1 (PHYLAXIS BIOSCIENCE, published 2025)
